The source of these data is the nanobody polyreactivity screen of Harvey et al. (2022).

This data set can be described thus: yeast display, Sf9 membrane polyspecificity reagent, FACS + sequencing; frameworks hold sequencing errors. Summed up:
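Sorting gates, low and high (top ~1%), were placed on anti-HA fluorescence to track expression and on streptavidin fluorescence to track reagent binding. A clone's polyreactivity label is taken from the gate it came out of. The reagent was 10% biotinylated, detergent-solubilized Sf9 membrane, applied for 1 hour at 4 °C to galactose-induced yeast display cells.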
As to “QVQLVESGGGLVQAGGSLRLSCAASGITFYWYAMGWYRQAPGKERELVAAITRSVGSTYYADSVKGRFSISRDNAKNPVYLQMNSLKPEDTAVYYCAADFYYYGFDYWGQGTQVTVSS”, the “polyreactivity (PSR sort gate)” value is listed as “low polyreactivity”.

On to “QVQLVESGGGLVQAGGSLRLSCAASGFIFPYYAMGWYRQAPGKERELVAAILTGGSTYYADSVKGRFTISRDNAKNTVYLQMNSLKAEDSAVYYCAARRKYDPNYYWGQGTQVTVSS”, for which the “polyreactivity (PSR sort gate)” value was “high polyreactivity”.

For “QVQLVESGGGLVQAGGSLRLSCAASGIIFRRYAMGWYRQAPGKERELVAAITSGGSTYYADSVKGRFTISRDNAKNTVYLQLHSLKPEDTAVYYCNKGGYAIRYDYYWGQGTQVTVSS”, the “polyreactivity (PSR sort gate)” value is recorded as “high polyreactivity”.

For “QVHLVESGGGLVQAGGSLRLSLAASGSIFHPYAMGWYRQAPGKERELVAAISKSGGNTYYADSVKGRFTISRDNAKNNVYLQMNSLKPVDPEVYYCAALDYWGQGTKVTVSS”, the “polyreactivity (PSR sort gate)” value was “low polyreactivity”.

With “QVQLVQSGGGLVQAGGSLRLSCAASGSTFYYYGMRSYREAPGKEMELFASISWRGGSTYSADSVKGRYTISRDNAKNTVYLQMNSLKPEDTAVYYCAASRRPWYRAVTWNAGDYWGQGTQVTVSS”, the “polyreactivity (PSR sort gate)” value is recorded as “high polyreactivity”.

Regarding “QVQLVESGGGLVQAGGSLRLSCAASGFTFIKYAMGWSRQAPGNEMEFVAAITRSGTSTYYADSVKGRFTISRDNAKNTVYLQMNSLKPEDTAVYYCAATYPRYYSGEFDYWGQGTLVTVSS”, the “polyreactivity (PSR sort gate)” value is “high polyreactivity”.

Regarding “QVQLAESGGGLVQAGGSLRLSCGASGSTFVAYALGWYRQAPGKEREFVAAISRSGGSTHYADSVKGRFTISRDNAKNTVYLQMNRLNPEDTAVYYCAARVYGYGGRTYEYWGQGTQVTVSS”, the “polyreactivity (PSR sort gate)” value is on record as “high polyreactivity”.

In the case of “QVQLVESGGGLVQAGGSLRLSCAASGRTFSAYAMGWYRQAPGKERELVAAITLSVGSTYYADSVKGRFTISRDNAKNTVYLQMNSLKPEDTAVYYCNKYKKGEGGITIVRFDYWGQGTQVTVSS”, the “polyreactivity (PSR sort gate)” value is reported as “low polyreactivity”.

Take “QVQLVESGGGIVQAGGSLRLSCAASGRTFYAYTMGWYRQAPGKETELVAANSRTGGRTYYADSVKGRFTISRDNAKNTVYLQMNSLKPEDTAVYYCAAGSKPGIQFRSVYSAYRYYYCGQGTQVTVSS”: the “polyreactivity (PSR sort gate)” value is reported as “high polyreactivity”.

On to “QVQLVESGGGLVQAGGSLRLSCSASGGTFEFYTMGWYRQAPGKERELVAAISWSGSSTYYADSVKGRFTISRDNAKNTVYLQMNSLKPEDTAVYYCAAYPRPYIGYTDGYVWYEFDYWGQGTQVTVSS”, for which the “polyreactivity (PSR sort gate)” value is given as “low polyreactivity”.

With “QVQHVESGGCLFQAGGILRLSCAASGIIFTYYDMGWYRQAPGKERELVAGIDYSGTSTYYADSVKGRFTISRDNAKNTVYLQMNSLKPEDTAVYYCAAVPVWVVYFSGEYYYWGQGTQVTVSS”, the “polyreactivity (PSR sort gate)” value is reported as “high polyreactivity”.

On to “QVQLVESWGGLVQAGGSLRLSCAASGSIFSYYGMGRYRQARGKERELVAAITRSTGSTYYADSVKGRFTISRDNAKNTVYLQMNSLKPEDTAVYYCATDYVVLWEFDYWGQGTQVTVSS”, for which the “polyreactivity (PSR sort gate)” value is “low polyreactivity”.

Turning to “QVQLVESGGGLVQAGGSLRLTCAASGIIFRFYGMGWYRQEPGKEREFVAAISGGGGSTYYADSVKGRFTISRDNAKKTVYLQMNSLKPEDTAVYYCARYTYRSAFEYWGQGTQVTVSS”, the “polyreactivity (PSR sort gate)” value is given as “high polyreactivity”.

For the sequence “QVQLVESGGGLVQAGGSLRLSCAASGNTFRWYDMGWYRQAPGKERELVAGITRVGCTNYADSVKGRFTISRDNAKNTVYLQMNSLKPEDTAVYYCAARPRWFYGYPYGIIGYDYWGQGTQVTVSS”, the “polyreactivity (PSR sort gate)” value is recorded as “high polyreactivity”.

For “QVQLVESGGGLVQAGGSLRLSWAASGRLFDGYAMGWYRQAPGTERELVATISSSGGATYYADSVKGRFTISRDNAKNTVYLQMNSLKPEDTAVYYCATAGSVSHWYSYFAFWERDYWGQGTQVTVSS”, the “polyreactivity (PSR sort gate)” value is recorded as “low polyreactivity”.

For “QVQLVESGGGLVQAGGSLRLSCAASGSTLRRNAMGWYRQAPGKERELVAAITGSRGSTFYADSVKGRFTISRDNAKNTVYLQMNSLKPEDTAVYYCAVYKWSTRVSQYRYDYWGQGTQVTVSS”, the “polyreactivity (PSR sort gate)” value is “high polyreactivity”.

Take “QVQLVESGGGLVQAGGSLRLSCAASGLIFWGYTMGWYRQAPGKERELVAAISRSGGRTYYADSVKGRFTISRDNAKNTVYLQMNSLKPEDTAVYYCAARYYYWGQGTQVTVSS”: the “polyreactivity (PSR sort gate)” value was “high polyreactivity”.

For the sequence “QVQLVESGGGLVQAGGSLRLSCAASGRTLHAYTMGWYRQAPGSERELVAAITRGGGNTYYADSVKGRFTISRDNAKNTVYLQLNSLKPEDTAVYYCNAAVSGYLSYEYDYWGQGTQVTVSS”, the “polyreactivity (PSR sort gate)” value is listed as “low polyreactivity”.

As for “QVQLVESGGGLVQAGGSLRLSCAASGRTFTYNAMGWYRQAPGKERELVAAITYRGGSTYYADSVKGRFTISRDNSNNTVYLQMNSLKPEDTAVYYCAASVSYYRYNTPHYYYWGQGTQVTVSS”, the “polyreactivity (PSR sort gate)” value is “high polyreactivity”.

With “QVQRVESGGGLVQAGGSLRLSCAASGRIFSLNAMGWYRQAPGKEREFVAAISTSSGTTYYADSVKGRFTISRDNAKNTVYLQMNSLKPEDTAVYYCAAKRPSRYYPYRWGFDYWGQGTQVTVSS”, the “polyreactivity (PSR sort gate)” value is “high polyreactivity”.

Regarding “QVQLVESGGGLVQAGGSLRLSCAASGRTFTVNAMGWYRQAPGKEREFVATISYRGGSTYADSVKGRFTISRDNAKNNVYLQMNSLKPEDTAVYYCAARSFWPYYGGDYDYWGQGNQVTVSS”, the “polyreactivity (PSR sort gate)” value is on record as “high polyreactivity”.

Regarding “QVQLVESGGGLVQAGGSLRLSCAASGFNFRANGMGWYRQAPGKERELVATITSGGTTNYADSVKGRFTISRDNAKNTVYLQMNSLKPEDTAVYYCDKRFGPAYFRLYDYWGQGTQVTVSS”, the “polyreactivity (PSR sort gate)” value was “low polyreactivity”.

Regarding “QFQLVEAGGGLVQAGGSLRLSCAASGRIFTYYAMGWYSQAPGKERELVAAITGSGGSTYYADSVKGRFTISRDNAKTTVYLQMISLKPEDTAVYYCARTDRRLGAHQGDYWGQGTQVTVSS”, the “polyreactivity (PSR sort gate)” value is recorded as “high polyreactivity”.

In the case of “QVQLVESGGGLVQAGGSLRLSCAASGRTFRINAMGWYRQAPGKEREFVASIRYSGGSTYYADSVKGRFTISRDNAKNTVYLQMNSLKPEDTAVYYCAAVRSYYRGYDYWGQGTQVTVSS”, the “polyreactivity (PSR sort gate)” value is given as “high polyreactivity”.

As to “QVQLVESGGGLVQAGGSLRLSCAASGLTFYYYVMGWYRQAPGKERELVAAISSSGGNTYYADSVKGRFTISRDNAKNTVYLQMNSLKPEDTAVYYCAAGQKRTLDNYWGQGTQVTVSS”, the “polyreactivity (PSR sort gate)” value is on record as “high polyreactivity”.

For the sequence “QVQLVESGGGLVQAGGSLRLSCAASGFIFFRYAMGWYRQAPGKERELVAAISTRTGITYYADSVKGRFTISRDNAKNTVYLQMNSLKPEDTAVYYCNVLRSHSLYPFWKYDYWGQGTQVTVSS”, the “polyreactivity (PSR sort gate)” value is “high polyreactivity”.

Regarding “QVQLVESGGGLVQAGGSLRLTCAASGRTFQYYSMGWYRQAPGKERELVAAISQDGGSTYYADSVKGRFTISRDNAKNTVYLQMNSLKPEDTAVYYCAARVDEYAYYALDDYWGQGTQVTVSS”, the “polyreactivity (PSR sort gate)” value is reported as “low polyreactivity”.

For the sequence “QVQLVESGGGLVQAGGSLRLSCAASGSTFLTNAMGWYRQAPGKERELVVAIRTSGGSTYYADSVKGRFTISRDNAKNTVYLQMNSLKPEDTAFYYCAASYRRRRFSEYYYWGQGTQVTVSS”, the “polyreactivity (PSR sort gate)” value is “high polyreactivity”.

As to “QVQLVETGGGLVQAGGSLRLSCAASGFTFWYNDMGWYRQPPGKEREFVAAINSGGSTNDADSVKGRFTISRDNAKNTVYLQMNSLKPEDTAVYYCNADWFTPAQPWYRYFIRYDYWGQGTQVTVSS”, the “polyreactivity (PSR sort gate)” value is given as “low polyreactivity”.

On to “QVQLVESGGGLVQAGGSLRLSCAASGRIFSDNAMGWYREAPGKERELVAAITWSSGSTYADSVKGRFTISRDNAKNTVYLQMNSLKPEDTAVYYCNVSPGYEPLDHELDYWGQGTQVTVSS”, for which the “polyreactivity (PSR sort gate)” value is listed as “low polyreactivity”.

With “QVQLVESGGGLVQARGSLRLSCAASGSIFGSYAMGWYRQAPGKDSELVADISCGGSTNYADSVKGRFTISRDNAKNTVYLQMNSLKPDDTAVYYCNADDPAGYLYLWGSWLESDYWGQGTQVTVSS”, the “polyreactivity (PSR sort gate)” value is given as “low polyreactivity”.

“QVQLVESGGGLVQAGGSLRLSCAASGITFSRNAMGWYRQAPGKERELVATITSGGSTNYADSVKGRFTISRDNAKNTVYLQMNSLKPEDTAVYYCAVDYDSYWYGTYVNEYDYWGQGTQVTVSS”: the “polyreactivity (PSR sort gate)” value is listed as “low polyreactivity”.

For “QVQLVESGGGLVQAGGSLRLRCAASGSIFIRYAMGWYRQAPGKERELVAVISGRGVRTNYADSVKGRFTIARDTAKNPVYLQMNSLKPEDTAVYYCAVRYYGKQLGPGVRYTYNYLGQGTQVTVSS”, the “polyreactivity (PSR sort gate)” value was “high polyreactivity”.

Take “QVQLVESGGGLVQAGGSLRLSCAASGSTSMSYVKGWYRQAPGKERELVASITSSGGSTYYADSVKGLFTISRDNAKNTVYLQMNSLKPEDTAVYYCNARSYIYPFSPTSYYRYYWGQGTQVTVSS”: the “polyreactivity (PSR sort gate)” value is “high polyreactivity”.

For the sequence “QVQLVESGGGLVQAGGSLRLSCAASGRTFKFYAMGWYRQAPGKERELVAAITSDGSTYYADSVKGRFTISRDNAKNTVYLQMNSQKPEDTAVYYCAKRSNTGRGYDYWGQGTQVTVSS”, the “polyreactivity (PSR sort gate)” value was “high polyreactivity”.

Take “QVQLVESGGGLVQAGGSLRLSCAASGRTFRRNAMGWYRQAPGKERELVAAISWRGVSTYYADSVKGRFTISRDNAKNTVYLQMNSLKPEDTAVYYCAVDFLYTRRDYWGQGTQVTVSS”: the “polyreactivity (PSR sort gate)” value is given as “high polyreactivity”.

“QVQLVESGGGLVQAGASLRLSCAATGNIFVPNAMGWYRQEPGKERELVAAIRRGGSTNYADSVKGRFTISRDNAKNTVYLQMNSMKPEDTAVYYCAKSRVSFTELEGYYWGQGTQVNVSS”: the “polyreactivity (PSR sort gate)” value was “low polyreactivity”.

In the case of “QAQLQEIGGSLVQAGGGLRLSCEASGYISVGSVMGWYRQAPSKERELVASIDQGANTNYADSVKGRFTISRDNEKNNVYLQMKSLKPEDTAVYYCATETTYILNDWGQGTQVTVSS”, the “polyreactivity (PSR sort gate)” value is recorded as “low polyreactivity”.

For “QVQLVESGGGKVQAGGSLRLSCAASGRIFPEYAMGWYRQAPGKERELVAAISSGDNTTYADSVKGRFTISRDNAKNTVYLQMNSLKPEDTAVYYCNAGSGTTGQGGPIIEYGYWGQGTQVTVSS”, the “polyreactivity (PSR sort gate)” value is reported as “low polyreactivity”.

As to “QVQHVESGGGLDQAGGSLRLSCAASGRTFSYYTMGWYRQAPGKERELVARISNRGTNTYYADSVKGRFTISRDNSKNTVYLQMNSLKPEDTAVYYCAKYYYTSIVGYDSWGQGTQVTVSS”, the “polyreactivity (PSR sort gate)” value is “low polyreactivity”.
